Data reported in patent US20130236458A1 (AbbVie / Abbott, published 2013).

T1: Recombinant Human IL-17 (human, UniProt Q16552 20-155, limits assumed)
T1 construct: bought reagent; also called IL-17A
T1 sequence (looked up): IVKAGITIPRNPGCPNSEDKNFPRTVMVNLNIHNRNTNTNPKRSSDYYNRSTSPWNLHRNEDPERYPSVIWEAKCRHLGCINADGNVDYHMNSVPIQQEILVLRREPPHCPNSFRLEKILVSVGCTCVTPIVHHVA


How the values were obtained:
Recombinant Human IL-13 [1] = molecular target: T2, Recombinant Human IL-13 (human, UniProt P35225 35-146, limits assumed); assay: SPR (Biacore)
T2 construct: bought reagent
Summary of the method: (§1)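 Antibodies or DVD-Ig captured on anti-mouse IgG (Fcγ) CM5 surface; antigen injected at 10–200 nM in HBS-EP, pH 7.4, 25 °C, 25 µL/min. kon and koff from global 1:1 Langmuir fit; KD = koff/kon.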

Recombinant Human IL-17 [2] = molecular target: T1, Recombinant Human IL-17; assay: SPR (Biacore)
Summary of the method: as §1

Recombinant Human IL-13 [3] = molecular target: T2, Recombinant Human IL-13; assay: cell-based or functional assay
Recombinant Human IL-17 [4] = molecular target: T1, Recombinant Human IL-17; assay: cell-based or functional assay

T2 sequence (P35225 35-146 limits assumed): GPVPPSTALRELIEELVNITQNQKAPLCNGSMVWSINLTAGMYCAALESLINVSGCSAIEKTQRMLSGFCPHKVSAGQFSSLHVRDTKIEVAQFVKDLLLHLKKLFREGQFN

Row | Binder | Kd (Recombinant Human IL-13 [1]) [nM] | koff (Recombinant Human IL-13 [1]) [s⁻¹] | kon (Recombinant Human IL-13 [1]) [M⁻¹ s⁻¹] | Kd (Recombinant Human IL-17 [2]) [nM] | koff (Recombinant Human IL-17 [2]) [s⁻¹] | kon (Recombinant Human IL-17 [2]) [M⁻¹ s⁻¹] | N-Terminal VD IL13 Neutralization Assay IC50 (Recombinant Human IL-13 [3]) [nM] | C-Terminal VD IL17 Neutralization Assay IC50 (Recombinant Human IL-17 [4]) [nM] | C-Terminal VD IL13 Neutralization Assay IC50 (Recombinant Human IL-13 [3]) [nM] | N-Terminal VD IL17 Neutralization Assay IC50 (Recombinant Human IL-17 [4]) [nM]
1 | DVD2166 (bispecific antibody, DVD-Ig; also called DVD2166H; DVD2166L) VH: EVQLVQSGAEVKKPGASVKVSCKASGYTFTTYGVSWVRQAPGQGLEWMGEIYPGNYNTYYNEKFRGRVTMTTDTSTSTAYMELRSLRSDDTAVYYCARWRTSYFSDYGYFDYWGQGTTVTVSSASTKGPEVQLVQSGAEVKKPGSSVKVSCKASGYTFTDYEIHWVRQAPGQGLEWMGVNDPESGGTFYNQKFDGRVTLTADESTSTAYMELSSLRSEDTAVYYCTRYSKWDSFDGMDYWGQGTTVTVSS VL: DVVMTQSPLSLPVTLGQPASISCRSSQSLVHSHGNTYLHWYQQRPGQSPRLLIYTVSNRFSGVPDRFSGSGSGTDFTLKISRVEAEDVGVYYCSQSTHVPYTFGGGTKVEIKRTVAAPDIQMTQSPSSLSASVGDRVTITCRASSGIISYIDWFQQKPGKAPKRLIYATFDLASGVPSRFSGSGSGTDYTLTISSLQPEDFATYYCRQVGSYPETFGQGTKLEIKR | 0.034 | 2.6e-05 | 760000 | 0.075 | 9.4e-06 | 130000 | 0.089 | 0.0164 | – | –
2 | DVD2168 (bispecific antibody, DVD-Ig; also called DVD2168H; DVD2168L) VH: EVQLVQSGAEVKKPGASVKVSCKASGYTFTTYGVSWVRQAPGQGLEWMGEIYPGNYNTYYNEKFRGRVTMTTDTSTSTAYMELRSLRSDDTAVYYCARWRTSYFSDYGYFDYWGQGTTVTVSSASTKGPEVQLVQSGAEVKKPGSSVKVSCKASGYTFTDYEIHWVRQAPGQGLEWMGVNDPESGGTFYNQKFDGRVTLTADESTSTAYMELSSLRSEDTAVYYCTRYSKWDSFDGMDYWGQGTTVTVSS VL: DVVMTQSPLSLPVTLGQPASISCRSSQSLVHSHGNTYLHWYQQRPGQSPRLLIYTVSNRFSGVPDRFSGSGSGTDFTLKISRVEAEDVGVYYCSQSTHVPYTFGGGTKVEIKRTVAAPSVFIFPPDIQMTQSPSSLSASVGDRVTITCRASSGIISYIDWFQQKPGKAPKRLIYATFDLASGVPSRFSGSGSGTDYTLTISSLQPEDFATYYCRQVGSYPETFGQGTKLEIKR | 0.054 | 3.7e-05 | 680000 | < 0.0025 | < 1e-06 | 400000 | 0.119 | 0.0025 | – | –
3 | DVD2161 (bispecific antibody, DVD-Ig; also called DVD2161H; DVD2161L) VH: EVQLVQSGAEVKKPGESVKISCKASGGSFRSYGISWVRQAPGQGLEWMGGITHFFGITDYAQKFQGRVTITADESTTTAYMELSGLTSDDTAVYYCAREPNDFWNGYYDTHDFDSWGQGTTVTVSSASTKGPEVTLRESGPGLVKPTQTLTLTCTLYGFSLSTSDMGVDWIRQPPGKGLEWLAHIWWDDVKRYNPALKSRLTISKDTSKNQVVLKLTSVDPVDTATYYCARTVSSGYIYYAMDYWGQGTLVTVSS VL: EIVLTQSPDFQSVTPKEKVTITCRASQNIGSELHWYQQKPDQSPKLLIKYASHSISGVPSRFSGSGSGTDFTLTINGLEAEDAATYYCHQSDTLPHTFGQGTKVDIKRTVAAPDIQMTQSPSSLSASVGDRVTISCRASQDIRNYLNWYQQKPGKAPKLLIFYTSKLHSGVPSRFSGSGSGTDYTLTISSLQPEDIATYYCQQGLTPPLTFGGGTKVEIKR | 0.38 | 4.1e-05 | 110000 | 0.027 | 4.5e-05 | 1.6e+06 | – | – | 0.812 | 0.0144
4 | DVD2165 (bispecific antibody, DVD-Ig; also called DVD2165H; DVD2165L) VH: EVQLVQSGAEVKKPGESVKISCKASGGSFRSYGISWVRQAPGQGLEWMGGITHFFGITDYAQKFQGRVTITADESTTTAYMELSGLTSDDTAVYYCAREPNDFWNGYYDTHDFDSWGQGTTVTVSSASTKGPSVFPLAPEVTLRESGPGLVKPTQTLTLTCTLYGFSLSTSDMGVDWIRQPPGKGLEWLAHIWWDDVKRYNPALKSRLTISKDTSKNQVVLKLTSVDPVDTATYYCARTVSSGYIYYAMDYWGQGTLVTVSS VL: EIVLTQSPDFQSVTPKEKVTITCRASQNIGSELHWYQQKPDQSPKLLIKYASHSISGVPSRFSGSGSGTDFTLTINGLEAEDAATYYCHQSDTLPHTFGQGTKVDIKRTVAAPDIQMTQSPSSLSASVGDRVTISCRASQDIRNYLNWYQQKPGKAPKLLIFYTSKLHSGVPSRFSGSGSGTDYTLTISSLQPEDIATYYCQQGLTPPLTFGGGTKVEIKR | 0.22 | 5.7e-05 | 260000 | 0.014 | 3.2e-05 | 2.3e+06 | – | – | 0.355 | 0.0133
5 | DVD2167 (bispecific antibody, DVD-Ig; also called DVD2167H; DVD2167L) VH: EVQLVQSGAEVKKPGSSVKVSCKASGYTFTDYEIHWVRQAPGQGLEWMGVNDPESGGTFYNQKFDGRVTLTADESTSTAYMELSSLRSEDTAVYYCTRYSKWDSFDGMDYWGQGTTVTVSSASTKGPEVQLVQSGAEVKKPGASVKVSCKASGYTFTTYGVSWVRQAPGQGLEWMGEIYPGNYNTYYNEKFRGRVTMTTDTSTSTAYMELRSLRSDDTAVYYCARWRTSYFSDYGYFDYWGQGTTVTVSS VL: DIQMTQSPSSLSASVGDRVTITCRASSGIISYIDWFQQKPGKAPKRLIYATFDLASGVPSRFSGSGSGTDYTLTISSLQPEDFATYYCRQVGSYPETFGQGTKLEIKRTVAAPDVVMTQSPLSLPVTLGQPASISCRSSQSLVHSHGNTYLHWYQQRPGQSPRLLIYTVSNRFSGVPDRFSGSGSGTDFTLKISRVEAEDVGVYYCSQSTHVPYTFGGGTKVEIKR | < 0.048 | < 1e-06 | 21000 | < 0.00037 | < 1e-06 | 2.7e+06 | – | – | 1.7 | 0.0029
6 | DVD2171 (bispecific antibody, DVD-Ig; also called DVD2171H; DVD2171L) VH: EVQLVQSGAEVKKPGSSVKVSCKASGYTFTDYEIHWVRQAPGQGLEWMGVNDPESGGTFYNQKFDGRVTLTADESTSTAYMELSSLRSEDTAVYYCTRYSKWDSFDGMDYWGQGTTVTVSSASTKGPSVFPLAPEVQLVQSGAEVKKPGASVKVSCKASGYTFTTYGVSWVRQAPGQGLEWMGEIYPGNYNTYYNEKFRGRVTMTTDTSTSTAYMELRSLRSDDTAVYYCARWRTSYFSDYGYFDYWGQGTTVTVSS VL: DIQMTQSPSSLSASVGDRVTITCRASSGIISYIDWFQQKPGKAPKRLIYATFDLASGVPSRFSGSGSGTDYTLTISSLQPEDFATYYCRQVGSYPETFGQGTKLEIKRTVAAPDVVMTQSPLSLPVTLGQPASISCRSSQSLVHSHGNTYLHWYQQRPGQSPRLLIYTVSNRFSGVPDRFSGSGSGTDFTLKISRVEAEDVGVYYCSQSTHVPYTFGGGTKVEIKR | < 0.005 | < 1e-06 | 200000 | 0.011 | 2.1e-05 | 1.9e+06 | – | – | 0.506 | 0.0011
7 | DVD2164 (bispecific antibody, DVD-Ig; also called DVD2164H; DVD2164L) VH: EVTLRESGPGLVKPTQTLTLTCTLYGFSLSTSDMGVDWIRQPPGKGLEWLAHIWWDDVKRYNPALKSRLTISKDTSKNQVVLKLTSVDPVDTATYYCARTVSSGYIYYAMDYWGQGTLVTVSSASTKGPSVFPLAPEVQLVQSGAEVKKPGESVKISCKASGGSFRSYGISWVRQAPGQGLEWMGGITHFFGITDYAQKFQGRVTITADESTTTAYMELSGLTSDDTAVYYCAREPNDFWNGYYDTHDFDSWGQGTTVTVSS VL: DIQMTQSPSSLSASVGDRVTISCRASQDIRNYLNWYQQKPGKAPKLLIFYTSKLHSGVPSRFSGSGSGTDYTLTISSLQPEDIATYYCQQGLTPPLTFGGGTKVEIKRTVAAPEIVLTQSPDFQSVTPKEKVTITCRASQNIGSELHWYQQKPDQSPKLLIKYASHSISGVPSRFSGSGSGTDFTLTINGLEAEDAATYYCHQSDTLPHTFGQGTKVDIKR | 0.11 | 0.00017 | 1.5e+06 | 1.7 | 3.1e-05 | 18000 | 0.146 | 0.135 | – | –
